Experimental data taken from patent US20120177651A1 (published 2012).

B1: BPC2015 (antibody, human IgG1, kappa, V domains shown)
VH: EVQLVQSGAEVKKPGASVKVSCKVSGYTFSGNWIEWVRQAPGKGLEWIGEILPGSGNTNYNEKFKGKATMTADTSTDTAYMELSSLRSEDTAVYYCARGGHYYGSSWDYWGQGTLVTVSS
VL: DIVMTQSPSSLSASVGDRVTITCKASENVVTYVSWYQQKPGKAPKLLIYGASNRYTGVPDRFSGSGSGTDFTLTISSLQPEDFATYYCGQGYSYPYTFGQGTKLEIKR
notes: Full human IgG1 (Fc wild type) / kappa anti-HGF antibody, expressed in HEK 293-6E cells; also called HuL2G7; anti-HGF mAb HuL2G7
B2: BPC2013 (antibody, human IgG1, kappa, V domains shown)
VH: QVQLQESGPGLVKPSETLSLTCTVSGGSISIYYWSWIRQPPGKGLEWIGYVYYSGSTNYNPSLKSRVTISVDTSKNQFSLKLNSVTAADTAVYYCARGGYDFWSGYFDYWGQGTLVTVSS
VL: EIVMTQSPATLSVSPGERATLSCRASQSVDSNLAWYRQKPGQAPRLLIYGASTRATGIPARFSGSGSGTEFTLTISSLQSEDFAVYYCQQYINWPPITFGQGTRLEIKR
notes: Full human IgG1 (Fc wild type) / kappa anti-HGF antibody, expressed in HEK 293-6E cells; also called 2.12.1; anti-HGF mAb 2.12.1
B3: BPC2014 (antibody, human IgG1, kappa, V domains shown)
VH: QVQLVQPGAEVKKPGTSVKLSCKASGYTFTTYWMHWVRQAPGQGLEWIGEINPTNGHTNYNQKFQGRATLTVDKSTSTAYMELSSLRSEDTAVYYCARNYVGSIFDYWGQGTLVTVSS
VL: DIVMTQSPDSLAMSLGERVTLNCKASENVVSYVSWYQQKPGQSPKLLIYGASNRESGVPDRFSGSGSATDFTLTISSVQAEDVADYHCGQSYNYPYTFGQGTKLEIKR
notes: Full human IgG1 (Fc wild type) / kappa anti-HGF antibody, expressed in HEK 293-6E cells; also called HE2B8-4; anti-HGF mAb LRMR2B8

Columns and labels:
[1] = target: T1, recombinant human HGF (human, UniProt P14210 32-728); test: ELISA on plate-coated recombinant human HGF, detection with anti-human kappa light chain peroxidase conjugate, Abs 490 nm
T1 construct: also called Hepatocyte Growth Factor; Scatter Factor

[2] = target: T1, recombinant human HGF; test: cell-based or functional assay; design: unit not given beside the values
[3] = target: T1, recombinant human HGF; test: SPR (Biacore T100), human HGF immobilised on CM5 chip, antibody as analyte, 1:1 binding model, 25 C
[4] = target: T1, recombinant human HGF; test: SPR (Biacore T100), human HGF immobilised on CM5 chip, antibody as analyte, bivalent analyte model, 25 C
[5] = target: T1, recombinant human HGF; test: cell-based or functional assay
[6] = target: T2, human VEGF (human, UniProt P15692-4 27-191, limits assumed); test: SPR (Biacore T100), antibody captured on Protein A C1 chip, human VEGF as analyte
T2 construct: The background says that VEGF-A isoforms form homodimers
T2 sequence (P15692 other isoform, or with tags, fused parts or gaps limits assumed): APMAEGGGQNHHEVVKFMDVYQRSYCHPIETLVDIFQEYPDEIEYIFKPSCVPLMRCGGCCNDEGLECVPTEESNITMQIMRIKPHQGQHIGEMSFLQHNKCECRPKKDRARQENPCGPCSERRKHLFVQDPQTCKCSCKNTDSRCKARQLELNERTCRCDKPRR

T1 sequence (P14210 32-728 limits assumed): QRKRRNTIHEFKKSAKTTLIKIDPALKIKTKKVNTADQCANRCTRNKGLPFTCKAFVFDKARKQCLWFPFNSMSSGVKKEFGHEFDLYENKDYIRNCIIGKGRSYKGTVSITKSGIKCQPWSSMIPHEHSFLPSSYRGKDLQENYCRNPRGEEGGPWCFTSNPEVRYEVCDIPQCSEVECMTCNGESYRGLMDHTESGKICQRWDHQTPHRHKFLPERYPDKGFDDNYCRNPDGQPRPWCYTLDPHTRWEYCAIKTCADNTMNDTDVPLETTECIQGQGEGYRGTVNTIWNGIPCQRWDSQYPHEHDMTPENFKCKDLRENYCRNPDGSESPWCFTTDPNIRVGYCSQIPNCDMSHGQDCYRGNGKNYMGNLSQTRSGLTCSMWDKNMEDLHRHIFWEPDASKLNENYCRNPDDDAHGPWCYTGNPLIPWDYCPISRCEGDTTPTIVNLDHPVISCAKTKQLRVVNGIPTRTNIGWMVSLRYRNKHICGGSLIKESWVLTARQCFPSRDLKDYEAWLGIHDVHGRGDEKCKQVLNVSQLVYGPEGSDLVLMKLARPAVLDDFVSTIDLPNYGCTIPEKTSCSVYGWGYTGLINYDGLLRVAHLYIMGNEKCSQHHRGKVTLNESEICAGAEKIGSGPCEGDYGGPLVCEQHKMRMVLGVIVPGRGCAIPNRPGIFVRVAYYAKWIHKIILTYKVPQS

Row | Binder | EC50 (read off the curve) [1] [nM] | IC50, MET phosphorylation in Bx-PC3 cells (mean of three experiments) [2] | Kd [3] [nM] | koff [3] [s⁻¹] | kon [3] [M⁻¹ s⁻¹] | Kd [4] [nM] | koff [4] [s⁻¹] | kon [4] [M⁻¹ s⁻¹] | IC50, % phospho AKT in Bx-PC3 cells (MSD, mean of two experiments) [5] [nM] | IC50, % phospho ERK in Bx-PC3 cells (MSD, mean of two experiments) [5] [nM] | IC50, % phospho MET in Bx-PC3 cells (MSD, mean of two experiments) [5] [nM] | IC50, Bx-PC3 cell migration with 25 ng/ml HGF (Oris, mean of three experiments) [5] [nM] | binding result [6]
1 | B1 | ~0.7 | 4.2 | 0.44 | 8.19e-05 | 186000 | 0.58 | 0.000132 | 228000 | 0.63 | 0.98 | 0.4 | 0.33 | 
2 | B2 | ~1 | 3.6 | 0.88 | 0.000122 | 140000 | 0.83 | 0.000202 | 242000 |  |  |  |  | no binding (tested: human VEGF up to 256 nM)
3 | B3 | ~1 | 4.5 | 1.54 | 0.00011 | 71400 | 1.62 | 0.000204 | 126000 |  |  |  |  | no binding (tested: human VEGF up to 256 nM)
